From publication PMC8913647

How the values were obtained:
[1] = biological target: major capsid protein VP1 of GII.4 norovirus Houston/TCH186/2002 (HOV), assembled as virus-like particle (human norovirus GII.4 (Houston/TCH186/2002, HOV)); experiment: cryo-EM structure; GII.4 HOV VLPs (0.24 mg/ml) in PBS pH 6.0 on graphene oxide coated grids; single-particle reconstruction with icosahedral symmetry imposed (cryoSPARC); ~3.8 Å
[2] = biological target: major capsid protein VP1 of GII.4 norovirus Houston/TCH186/2002 (HOV), assembled as virus-like particle (human norovirus GII.4 (Houston/TCH186/2002, HOV)); experiment: crystal structure; GII.4 HOV VLP crystallised by hanging-drop vapor diffusion at room temperature; space group I222, 45 VP1 copies in the asymmetric unit, refined with NCS without imposing icosahedral symmetry; 3.0 Å

Work on “major capsid protein VP1 of GII.4 norovirus Houston/TCH186/2002 (HOV), assembled as virus-like particle (natural protein)” yielded a stoichiometry N [1] of 180 and a stoichiometry N [2] of 180.
